The text below walks through data of patent US20040002586A1.

The target of the assay is recombinant human interleukin-22 (IL-22), expressed in E. coli from pEThTIF, refolded, not glycosylated (human) (UniProt Q9GZX6). Put plainly: X-ray crystal structure, surface buried between monomer A and monomer B.

“recombinant human interleukin-22 (IL-22), expressed in E. coli from pEThTIF, refolded, not glycosylated (from UniProt Q9GZX6 29-179) (ligand)”: the interface area was found to be 2250 Å^2.
